Results: patent WO2001004159A1

Tests used:
[1] = biological target: platelet Fc receptor Fc-gamma RIIA (human) (UniProt P12318); test: cell-based or functional assay
[2] = biological target: hPF4/heparin complex (human) (UniProt P02776); test: cell-based or functional assay
[3] = biological target: hPF4/heparin complex (human) (UniProt P02776); test: ELISA, wells coated with hPF4/heparin complex
[4] = biological target: hPF4/heparin complex (human) (UniProt P02776); test: ELISA (A405), KKO below 0.14 micrograms per milliliter
[5] = biological target: hPF4/heparin complex (human) (UniProt P02776); test: ELISA, wells coated with hPF4 with or without heparin

Chain of UniProt P02776 (P02776 32-101, one chain of several): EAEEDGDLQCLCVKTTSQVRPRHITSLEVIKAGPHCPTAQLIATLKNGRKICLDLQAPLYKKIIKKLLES
Chain of UniProt P12318 (P12318 34-317, form in doubt): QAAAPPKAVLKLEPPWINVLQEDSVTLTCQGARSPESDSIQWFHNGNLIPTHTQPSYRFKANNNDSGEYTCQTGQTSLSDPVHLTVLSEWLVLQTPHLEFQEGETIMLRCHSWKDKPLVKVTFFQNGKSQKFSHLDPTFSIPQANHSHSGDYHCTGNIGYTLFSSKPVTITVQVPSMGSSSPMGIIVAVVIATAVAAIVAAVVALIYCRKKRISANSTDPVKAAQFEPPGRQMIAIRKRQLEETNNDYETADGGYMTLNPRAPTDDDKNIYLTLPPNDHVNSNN

14C-serotonin release induced by KKO in the presence of the FcγRIIA-specific mAb IV.3 [1]: < 5 % release | KKO concentration required to initiate 14C-serotonin release (micrograms per milliliter) [2]: > 180 | EC50 [3]: 0.036 µg/mL | ratio of binding to PF4/heparin complex vs. binding to PF4 alone [4]: > 400 | A405 ratio to hPF4/heparin complex versus hPF4 alone [5]: > 30
Substance: murine monoclonal antibody KKO
